Data from PMC11022571, “Functional analysis of feedback inhibition-insensitive aspartate kinase identified in a threonine-accumulating mutant of Saccharomyces cerevisiae” (Applied and Environmental Microbiology, 2024).
Numbering of substitutions follows the chain as printed. In names and notes the source's numbering stands.

T1: Hom3 (aspartate kinase, AK) (Saccharomyces cerevisiae, UniProt P10869)
T1 sequence (P10869 1-527): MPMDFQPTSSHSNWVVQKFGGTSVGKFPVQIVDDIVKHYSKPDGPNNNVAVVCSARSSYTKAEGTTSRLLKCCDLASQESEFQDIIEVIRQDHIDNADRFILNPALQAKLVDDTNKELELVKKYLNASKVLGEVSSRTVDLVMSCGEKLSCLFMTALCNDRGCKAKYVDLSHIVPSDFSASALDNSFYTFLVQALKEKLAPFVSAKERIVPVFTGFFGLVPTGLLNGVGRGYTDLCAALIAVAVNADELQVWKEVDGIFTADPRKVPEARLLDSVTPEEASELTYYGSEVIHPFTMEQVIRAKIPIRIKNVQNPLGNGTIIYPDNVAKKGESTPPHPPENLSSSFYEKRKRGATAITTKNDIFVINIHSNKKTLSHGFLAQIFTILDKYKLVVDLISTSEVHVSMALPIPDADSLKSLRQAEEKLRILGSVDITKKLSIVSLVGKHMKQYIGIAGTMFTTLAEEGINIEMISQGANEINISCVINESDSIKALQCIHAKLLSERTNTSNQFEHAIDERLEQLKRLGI

B1: Hom3 (aspartate kinase, AK) (Saccharomyces cerevisiae S288C) (protein)
chain: T1 sequence (P10869 1-527)
B2: Hom3 (aspartate kinase, AK) (Saccharomyces cerevisiae S288C; A462T) (protein)
chain: T1 sequence (P10869 1-527) with A462T

Key:
[1] = biological target: T1, Hom3 (aspartate kinase, AK); test: PK/LDH-coupled AK assay at […] Asp and […] ATP; BN-PAGE shift from ~[…] to ~[…] kDa with […] Thr; format: biochemical
[2] = substrate: Nc1ncnc2c1ncn2[C@@H]1O[C@H](COP(=O)(O)OP(=O)(O)OP(=O)(O)O)[C@@H](O)[C@H]1O; test: steady-state kinetics (Km), PK/LDH-coupled assay; format: biochemical, Saccharomyces cerevisiae; settings: Mg2+ ([…] MgSO4 in assay)
[3] = substrate: N[C@@H](CC(=O)O)C(=O)O; test: steady-state kinetics (Km), PK/LDH-coupled assay; format: biochemical, Saccharomyces cerevisiae; settings: Mg2+ ([…] MgSO4 in assay)

| Molecule | IC50 [1] [mM] | Km [2] [µM] | kcat [2] [s⁻¹] | kcat/Km [2] [M⁻¹ s⁻¹] | Km [3] [µM] | kcat [3] [s⁻¹] | kcat/Km [3] [M⁻¹ s⁻¹] |
| --- | --- | --- | --- | --- | --- | --- | --- |
| C[C@@H](O)[C@H](N)C(=O)O [threonine] | 5.4 ± 0.12 | – | – | – | – | – | – |
| B1 | – | 830 ± 44 | 54 ± 0.78 | 65000 | 3800 ± 360 | 55 ± 1.5 | 15000 |
| B2 | – | 1000 ± 71 | 53 ± 1.1 | 51000 | 4400 ± 370 | 55 ± 1.4 | 13000 |
